Measurements reported in IntAct's records for PubMed 31515488.

B1: G patch domain and ankyrin repeat-containing protein 1 (Homo sapiens), O95872 (parent)
chain: MSRPLLITFTPATDPSDLWKDGQQQPQPEKPESTLDGAAARAFYEALIGDESSAPDSQRSQTEPARERKRKKRRIMKAPAAEAVAEGASGRHGQGRSLEAEDKMTHRILRAAQEGDLPELRRLLEPHEAGGAGGNINARDAFWWTPLMCAARAGQGAAVSYLLGRGAAWVGVCELSGRDAAQLAEEAGFPEVARMVRESHGETRSPENRSPTPSLQYCENCDTHFQDSNHRTSTAHLLSLSQGPQPPNLPLGVPISSPGFKLLLRGGWEPGMGLGPRGEGRANPIPTVLKRDQEGLGYRSAPQPRVTHFPAWDTRAVAGRERPPRVATLSWREERRREEKDRAWERDLRTYMNLEF
partner: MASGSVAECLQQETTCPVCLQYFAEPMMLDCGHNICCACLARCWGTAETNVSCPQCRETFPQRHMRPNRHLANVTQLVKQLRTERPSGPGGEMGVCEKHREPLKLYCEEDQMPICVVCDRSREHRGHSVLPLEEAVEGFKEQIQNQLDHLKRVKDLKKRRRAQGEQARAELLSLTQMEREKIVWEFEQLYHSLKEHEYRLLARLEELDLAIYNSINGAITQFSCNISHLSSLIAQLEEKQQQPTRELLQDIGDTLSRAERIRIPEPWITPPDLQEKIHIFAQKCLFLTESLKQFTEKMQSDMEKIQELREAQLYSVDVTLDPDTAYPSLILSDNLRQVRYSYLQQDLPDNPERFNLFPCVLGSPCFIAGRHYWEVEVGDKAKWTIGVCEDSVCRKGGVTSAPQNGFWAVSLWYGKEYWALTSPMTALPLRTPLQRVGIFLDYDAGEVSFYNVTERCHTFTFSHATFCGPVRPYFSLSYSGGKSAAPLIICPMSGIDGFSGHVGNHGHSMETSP
B2: Pre-mRNA-splicing factor SPF27 (Homo sapiens), O75934 (parent)
chain: MAGTGLVAGEVVVDALPYFDQGYEAPGVREAAAALVEEETRRYRPTKNYLSYLTAPDYSAFETDIMRNEFERLAARQPIELLSMKRYELPAPSSGQKNDITAWQECVNNSMAQLEHQAVRIENLELMSQHGCNAWKVYNENLVHMIEHAQKELQKLRKHIQDLNWQRKNMQLTAGSKLREMESNWVSLVSKNYEIERTIVQLENEIYQIKQQHGEANKENIRQDF
partner: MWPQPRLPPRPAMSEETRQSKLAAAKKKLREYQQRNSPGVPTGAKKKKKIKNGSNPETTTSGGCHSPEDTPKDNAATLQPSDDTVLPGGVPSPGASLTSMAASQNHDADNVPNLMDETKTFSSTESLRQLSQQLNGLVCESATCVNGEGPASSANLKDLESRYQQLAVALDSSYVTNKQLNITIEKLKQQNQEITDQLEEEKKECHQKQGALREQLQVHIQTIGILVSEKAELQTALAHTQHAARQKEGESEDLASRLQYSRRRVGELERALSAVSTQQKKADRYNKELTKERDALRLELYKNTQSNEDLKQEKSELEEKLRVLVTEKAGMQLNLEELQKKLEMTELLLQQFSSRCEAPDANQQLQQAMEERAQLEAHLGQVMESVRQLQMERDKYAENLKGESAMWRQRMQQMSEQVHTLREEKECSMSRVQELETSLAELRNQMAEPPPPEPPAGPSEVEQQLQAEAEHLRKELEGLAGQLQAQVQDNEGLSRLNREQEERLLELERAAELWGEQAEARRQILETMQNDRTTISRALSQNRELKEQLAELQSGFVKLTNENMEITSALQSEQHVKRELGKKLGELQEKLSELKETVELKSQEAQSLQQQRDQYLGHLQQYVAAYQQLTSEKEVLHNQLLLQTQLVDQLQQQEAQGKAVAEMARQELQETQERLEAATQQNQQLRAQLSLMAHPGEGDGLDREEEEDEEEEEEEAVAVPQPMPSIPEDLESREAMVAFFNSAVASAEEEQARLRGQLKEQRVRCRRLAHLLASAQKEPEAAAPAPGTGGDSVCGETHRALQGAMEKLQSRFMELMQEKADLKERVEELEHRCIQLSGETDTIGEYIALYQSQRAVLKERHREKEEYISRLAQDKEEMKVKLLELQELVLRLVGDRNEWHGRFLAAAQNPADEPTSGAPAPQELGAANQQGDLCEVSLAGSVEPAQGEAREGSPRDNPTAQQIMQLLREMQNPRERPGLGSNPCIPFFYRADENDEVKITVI
B3: Protein LDOC1 (Homo sapiens), O95751 (parent)
chain: MVDELVLLLHALLMRHRALSIENSQLMEQLRLLVCERASLLRQVRPPSCPVPFPETFNGESSRLPEFIVQTASYMLVNENRFCNDAMKVAFLISLLTGEAEEWVVPYIEMDSPILGDYRAFLDEMKQCFGWDDDEDDDDEEEEDDY
partner: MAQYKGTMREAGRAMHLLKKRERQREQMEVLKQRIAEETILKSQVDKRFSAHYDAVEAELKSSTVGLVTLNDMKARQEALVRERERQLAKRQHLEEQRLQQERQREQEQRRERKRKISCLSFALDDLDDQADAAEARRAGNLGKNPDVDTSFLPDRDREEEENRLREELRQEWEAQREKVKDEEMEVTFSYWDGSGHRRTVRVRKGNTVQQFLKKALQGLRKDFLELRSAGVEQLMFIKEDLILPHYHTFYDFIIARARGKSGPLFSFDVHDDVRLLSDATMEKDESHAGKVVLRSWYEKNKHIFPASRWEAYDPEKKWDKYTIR
B4: Zinc finger protein Aiolos (Homo sapiens), Q9UKT9 (parent)
chain: MEDIQTNAELKSTQEQSVPAESAAVLNDYSLTKSHEMENVDSGEGPANEDEDIGDDSMKVKDEYSERDENVLKSEPMGNAEEPEIPYSYSREYNEYENIKLERHVVSFDSSRPTSGKMNCDVCGLSCISFNVLMVHKRSHTGERPFQCNQCGASFTQKGNLLRHIKLHTGEKPFKCHLCNYACQRRDALTGHLRTHSVEKPYKCEFCGRSYKQRSSLEEHKERCRTFLQSTDPGDTASAEARHIKAEMGSERALVLDRLASNVAKRKSSMPQKFIGEKRHCFDVNYNSSYMYEKESELIQTRMMDQAINNAISYLGAEALRPLVQTPPAPTSEMVPVISSMYPIALTRAEMSNGAPQELEKKSIHLPEKSVPSERGLSPNNSGHDSTDTDSNHEERQNHIYQQNHMVLSRARNGMPLLKEVPRSYELLKPPPICPRDSVKVINKEGEVMDVYRCDHCRVLFLDYVMFTIHMGCHGFRDPFECNMCGYRSHDRYEFSSHIARGEHRALLK
partner: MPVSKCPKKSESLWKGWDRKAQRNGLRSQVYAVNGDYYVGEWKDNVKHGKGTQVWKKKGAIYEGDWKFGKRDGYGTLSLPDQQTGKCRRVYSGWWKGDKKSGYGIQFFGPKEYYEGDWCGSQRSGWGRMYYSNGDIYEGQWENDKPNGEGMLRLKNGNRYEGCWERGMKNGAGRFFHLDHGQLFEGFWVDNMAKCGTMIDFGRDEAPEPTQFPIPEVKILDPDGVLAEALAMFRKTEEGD
B5: NUT family member 2F (Homo sapiens), A1L443 (parent)
chain: MASNGAYPVLGPGVTVNPGTSLSVFTALPFATPAPGPAHRPPLVTAVVPPAGPLVLSAFPSTPLVAGQDGRGPSGAGASNVFVQMRTEVGPVKPPQAQTLILTQAPLVWQAPGTLCGGVMCPPPLLLAAAPGVPVTSAQVVGGTQACEGGWSHGLPLPPPPPAAQVAPIVSPGNARPWPQGAHGEGSLAPSQAKARPDDSCKPKSVYENFRLWQHYKPLARRHLPQSPDTEALSCFLIPVLRSLARRKPTMTLEEGLWQAMREWQHTSNFDRMIFYEMAEKFLEFEAEEEMQIQKSQWMKGPQSLPPPAPPRLEPRGPPAPEVVKQPVYLPSKDGPKAPTACLPPPRPQRPAETKAHLPPPRPQRPAETNAHLPPPRPQRPAETKVPEEIPPEVVQEYVDIMEELLGSHPGDTGEPEGQREKGKVEQPQEEDGITSDPGLLSYIDKLCSQEDFVTKVEAVIHPRFLEELLSPDPQMDFLALSQELEQEEGLTLAQLVEKRLLSLKEKGCGRAAPRHGTARLDSSPSEFAAGQEAAREVPDPQQRVSVETSPPQTAAQDPQGQGRVRTGMARSEDPAVLLGCQDSPRLKAVRPTSPPQDHRPTCPGLGTKDALGLPGESPVKESHGLAKGSSEETELPGMVYVVGSHHRLRPWRLSQSPVPSSGLLSPGGRGPQGALQSPSAQKRGLSPSPSPASKSKKRPLFGSPSPAEKTPHPGPGLRVSGEQSLAWGLGGPSQSQKRKGDPLASRRKKKRHCSQ
partner: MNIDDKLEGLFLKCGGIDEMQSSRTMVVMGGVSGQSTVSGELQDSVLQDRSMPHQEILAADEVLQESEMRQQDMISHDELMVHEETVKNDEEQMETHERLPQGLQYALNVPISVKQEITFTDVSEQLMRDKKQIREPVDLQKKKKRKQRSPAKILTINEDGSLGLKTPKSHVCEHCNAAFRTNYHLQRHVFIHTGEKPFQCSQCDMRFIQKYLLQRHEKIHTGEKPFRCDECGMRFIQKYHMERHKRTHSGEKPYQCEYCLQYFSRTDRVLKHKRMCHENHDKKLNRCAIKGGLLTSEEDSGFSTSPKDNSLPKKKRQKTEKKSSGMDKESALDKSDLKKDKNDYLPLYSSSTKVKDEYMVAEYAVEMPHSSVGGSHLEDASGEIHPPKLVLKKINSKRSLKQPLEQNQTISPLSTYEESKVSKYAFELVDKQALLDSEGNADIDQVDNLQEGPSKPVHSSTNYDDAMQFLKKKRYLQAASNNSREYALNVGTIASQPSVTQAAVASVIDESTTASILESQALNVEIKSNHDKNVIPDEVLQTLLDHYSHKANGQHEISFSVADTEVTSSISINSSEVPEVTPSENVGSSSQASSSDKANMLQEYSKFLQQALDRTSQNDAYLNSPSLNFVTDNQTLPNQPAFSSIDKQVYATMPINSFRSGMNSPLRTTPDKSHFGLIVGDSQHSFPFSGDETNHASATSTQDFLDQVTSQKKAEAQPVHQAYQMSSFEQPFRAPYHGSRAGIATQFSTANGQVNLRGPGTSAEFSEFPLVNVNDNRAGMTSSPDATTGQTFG

Variants of: B1
Conditions: with tri27_human TRIM27, P14373

Variant | effect of a mutation on the interaction
D56E | disrupting interaction strength

Variants of: B2
Conditions: with goga2_human GOLGA2, Q08379

Variant | effect of a mutation on the interaction
N139S | disrupting interaction strength

Variants of: B3
Conditions: with fa50b_human FAM50B

Variant | effect of a mutation on the interaction
L12H | disrupting interaction strength

Variants of: B4
Conditions: with morn3_human MORN3, Q6PF18

Variant | effect of a mutation on the interaction
A24V | with no effect
N119D | with no effect

Variants of: B5
Conditions: with zn148_human ZNF148, Q9UQR1

Variant | effect of a mutation on the interaction
N370K | with no effect
